Assay results as given in US20210252159A1, “CONJUGATES OF CARTILAGE-HOMING PEPTIDES” (priority 2018, published 2021).
Positions of bridges follow the written chain, without caps; N, C: chain ends. Residues, ends and D or L forms follow the SMILES beside them. *: point of attachment. X4 = C[C@@H]1C[C@H]2[C@@H]3CCC4=CC(=O)C=C[C@]4(C)[C@@]3(F)[C@@H](O)C[C@]2(C)[C@@]1(O)C(=O)COC(=O)[C@H]1CC[C@H](C(=O)*)CC1; X3 = C[C@@H]1C[C@H]2[C@@H]3CCC4=CC(=O)C=C[C@]4(C)[C@@]3(F)[C@@H](O)C[C@]2(C)[C@@]1(O)C(=O)COC(=O)CCCC(=O)*

How the values were obtained:
CIA rats = details: for ankle swelling over time as compared to vehicle: 0.2 mg/kg and 0.5 mg/kg Dex equivalents IV days 11 and 12; for spleen weight / thymus weight / total body weight: 0.2 mg/kg and 0.5 mg/kg dose; for change in median ankle diameter between day 11 and day 13 as compared to vehicle / difference from Dex in change in ankle diameter: 0.2 mg/kg dose; for reduction in thymus weight as compared to vehicle: 0.2 mg/kg dose groups
Protocol: Arthritis was induced in 9-week-old female Lewis rats (Envigo or Charles River Laboratories) by intradermal injection while anesthetized of 400 ug bovine type II collagen (Chondrex Inc, Redmond Wash.) in 2 adjacent 200 ul (1 mg/ml) doses on day 0. Collagen is prepared for injection by dissolving at 2 mg/ml in 0.01N glacial acetic acid in sterile water and rocking at 4° C. overnight then emulsifying in Freund's incomplete adjuvant (IFA, Sigma Aldrich). To emulsify, equal volumes of collagen solution and IFA are drawn up into separate syringes, which are joined by a 3-way stopcock. While on ice, the collagen and IFA are mixed by pressing between the two syringes rapidly for 10 minutes. Quality of the emulsification is tested after 10 minutes of mixing by dropping a small amount of mixture in water. A properly emulsified solution will remain as a discrete droplet and not disperse in the water. On day 7, rats are challenged with a second intradermal injection of 100 ug of collagen in 100 ul, 1 mg/ml, collagen in IFA solution prepared fresh. Body weight and ankle diameter measurements are recorded daily from day 7 through the end of the study. Ankle diameter was measure by a single researcher using a Fowler Digitrix 2 micrometer. Three measurements of each ankle were taken of the lateral dimension at the tarsus of lightly anesthetized rats. The reported ankle diameter measurement is the mean of the three measurements.
Arthritis was induced as described in four cohorts of 9-week-old female Lewis rats. Rats were randomly placed in treatment groups, balancing compound and dose groups across cohorts. […] Rats were dosed by tail vein injection on days 11 and 12 and euthanized on day 13 by CO2 asphyxiation. Immediately after cessation of respiratory movement, blood was collected by cardiac puncture, synovial fluid was collected from both knees, one hind limb was fixed in formalin and the alternate ankle was frozen on dry ice. Thymus, spleen, liver, and kidney weights were recorded.
CIA Response study design.
The aim of the study was to test the 4 conjugates with various linkers at two different doses in vivo in CIA rats to assess the following: ability to deliver sufficient dexamethasone to the joint to show functionality and potential therapeutic effect in the disease model.
CIA was induced in female Lewis rats (as described above, see EXAMPLE 21). Body weight and ankle joint diameters were measured on day 0 and then daily from day 7 until euthanasia. […] At euthanasia, synovial fluid was collected from both knees, one hind limb was fixed in formalin and the alternate ankle was frozen on dry ice. Thymus, spleen, liver, and kidney weights were recorded. Blood samples were submitted for CBC/Chemistry analysis, and the remaining plasma was frozen.

[1] = Hydrolysis assay of peptide-drug conjugates in PBS (free Dex by LC/MS); format: physicochemical; details: 37° C.; for Hydrolysis half-life: in PBS, free Dex
Protocol: (§1) In order to determine hydrolysis rates, conjugates can be diluted in PBS, rat plasma, or human plasma and incubated at 37 degrees. Samples can be taken at designated time-points (e.g., 1, 2, 3, 5, 10, 15, 20, 25, 30, 45, 60, or 90 minutes and/or hours after administration). Internal standards such as triamcinolone acetonide (TAA) can be added as an internal standard, and then active agent/TAA can be extracted using acetonitrile, for example. The samples can be dried down, reconstituted, and analyzed by LC/MS. Data can be normalized using Dex AUC/TAA AUC. Percent hydrolysis can be calculated using the average ratio for active agent AUC/TAA AUC at a time point of maximal drug release. A general method can include using a lyophilized, purified peptide-drug conjugates reconstituted in DMSO following production to generate stock solution at 20 mg/mL. Each conjugate stock can be brought to 0.25 mg/mL in each hydrolysis condition (1×DPBS, human plasma and rat plasma) in triplicate and rocked at 37° C. To quantitate free active agent, 100 μl of the hydrolyzed conjugate solution can be transferred into 1 mL acetonitrile at 4° C. at which time all plasma proteins and intact conjugates can precipitate. This can be performed repeatedly to generate a series of time points (0 hr, 0.5 hr, 1 hr, 2 hr, 4 hr, 6 hr, 8 hr, 24 hr, 32 hr). The acetonitrile solution can be spun at 17,000 g for 5 minutes, and the supernatant removed and added to a 96 well block. The pellet can then be resuspended in 500 μl acetonitrile and re-pelleted as before. The supernatant can be removed and added to the same well in the block. Samples can be prepared for analysis by drying under a nitrogen stream followed by reconstitution in 110 μl 45:55 ACN:Citrate 10 mM pH 5.5. To ensure optimal recovery the block can be shaken via plate shaker at 7,000 rpm for 5 minutes during the reconstitution step. Prior to LC/MS the samples can be transferred to a 96 well plate and centrifuged at 6,500 g for 15 minutes. Analysis can be performed on an Agilent 1260 Infinity series HPLC with inline 6120 single quad MS using acetonitrile, water (+0.1% TFA) gradient (shown below) on an InfinityLab Poroshell SB-C18 column. Quantification of free active agent (or drug) can be achieved through integration of active agent peaks of the TIC.
(§2) Lyophilized, purified peptide-drug conjugates were reconstituted in DMSO following production to generate stock solution at 20 mg/mL. Each conjugate stock was brought to 0.25 mg/mL in each hydrolysis condition (1×DPBS, human plasma and rat plasma) in triplicate and rocked at 37° C.
(§3) To quantitate free dexamethasone (Dex), 100 μl of the hydrolyzed conjugate solution was transferred into 1 mL acetonitrile at 4° C. at which time all plasma proteins and intact conjugates precipitated. This was performed repeatedly to generate a series of time points (0 hr, 0.5 hr, 1 hr, 2 hr, 4 hr, 6 hr, 8 hr, 24 hr, 32 hr). The corticosteroid triamcinolone acetonide (25 μl, 0.1 mg/mL in 45:55 ACN:Citrate 10 mM pH 5.5) was supplemented into the acetonitrile solution as an internal standard. The acetonitrile solution was spun at 17,000 g for 5 minutes, and the supernatant removed and added to a 96 well block. The pellet was resuspended in 500 μl acetonitrile and re-pelleted as before. The supernatant was removed and added to the same well in the block.
Samples were prepared for analysis by drying under a nitrogen stream followed by reconstitution in 110 μl 45:55 ACN:Citrate 10 mM pH 5.5. To ensure optimal recovery the block was shaken via plate shaker at 7,000 rpm for 5 minutes during the reconstitution step. Prior to LC/MS the samples were transferred to a 96 well plate and centrifuged at 6,500 g for 15 minutes. Analysis was performed on an Agilent 1260 Infinity series HPLC with inline 6120 single quad MS using a gradient of 0.1% TFA in acetonitrile (solvent B), and 0.1% TFA (aq) (solvent A) gradient (shown below) on an InfinityLab Poroshell SB-C18 column. […]

[2] = Hydrolysis assay of peptide-drug conjugates in human plasma (free Dex by LC/MS); format: in vitro ADME; details: 37° C., release of free Dex, time points to 32 hr, read-out: Half-life (hours) as measured in the hydrolysis experiments (converted)
Protocol: as §1, with “To ensure optimal recovery the block can be shaken via plate shaker at 7,000 rpm for 5 minutes during the reconstitution step. Prior to LC/MS the samples can be transferred to a 96 well plate and centrifuged at 6,500 g for 15 minutes. Analysis can be performed on an Agilent 1260 Infinity series HPLC with inline 6120 single quad MS using acetonitrile, water (+0.1% TFA) gradient (shown below) on an InfinityLab Poroshell SB-C18 column.” left out, “TIC. […]” for “TIC.”
To quantitate free dexamethasone (Dex), 100 μl of the hydrolyzed conjugate solution was transferred into 1 mL acetonitrile at 4° C. at which time all plasma proteins and intact conjugates precipitated. […]

[3] = Hydrolysis assay of peptide-drug conjugates in rat plasma (free drug by LC/MS); format: in vitro ADME; details: 37° C.
Protocol: Peptide-drug conjugate peptide(SEQ ID NO: 105)-DMA-dCIC was incubated in rat plasma at 37° C. Samples were removed at regular intervals, processed by solvent extraction, and analyzed by LC/MS to quantitate free dCIC. 11 time-points were measured between 5 min and 56 hours with 3 replicates per time point. The assay was repeated two times.
as §1, §2, §3
Samples were prepared for analysis by drying under a nitrogen stream followed by reconstitution in 110 μl 45:55 ACN:Citrate 10 mM pH 5.5. To ensure optimal recovery the block was shaken via plate shaker at 7,000 rpm for 5 minutes during the reconstitution step. […]

[4] = Rat Plasma, release of free Dex, time points to 32 hr, read-out: Half-life (hours) as measured in the hydrolysis experiments (converted)
[5] = in rat plasma, free Dex, read-out: Hydrolysis half-life (converted)

With CC[C@H](C)[C@@H]1NC(=O)[C@@H]2CSSC[C@H](NC(=O)[C@H](CCCNC(=N)N)NC(=O)[C@@H](NC(=O)[C@H](CC(N)=O)NC(=O)[C@@H](NC(=O)[C@@H]3CCCN3C(=O)[C@@H](NC(=O)CNC(=O)[C@H](CO)NC(=O)CNC(=O)CCCC(=O)OCC(=O)[C@@]3(O)[C@H](C)C[C@H]4[C@@H]5CCC6=CC(=O)C=C[C@]6(C)[C@@]5(F)[C@@H](O)C[C@@]43C)C(C)C)[C@@H](C)CC)C(C)C)C(=O)N[C@@H](CCCNC(=N)N)C(=O)NCC(=O)N[C@@H](CO)C(=O)N[C@@H](CCCNC(=N)N)C(=O)N[C@@H](CC(=O)O)C(=O)N[C@H]3CSSC[C@H](NC(=O)[C@H](CCCNC(=N)N)NC(=O)[C@H](CO)NC(=O)[C@H](CC(N)=O)NC1=O)C(=O)N[C@@H](Cc1c[nH]cn1)C(=O)N[C@H](C(=O)N[C@H](C(=O)N1CCC[C@H]1C(=O)O)[C@@H](C)O)CSSC[C@H](NC(=O)[C@@H]1CCCN1C(=O)[C@H](CC(=O)O)NC(=O)[C@H](CC(C)C)NC3=O)C(=O)N[C@@H](CCCNC(=N)N)C(=O)N[C@@H](CCCNC(=N)N)C(=O)N[C@@H](C)C(=O)NCC(=O)N[C@@H](CCSC)C(=O)N[C@@H](CCCNC(=N)N)C(=O)N[C@@H](Cc1ccccc1)C(=O)NCC(=O)N[C@@H](CCCNC(=N)N)C(=O)N2 [Compound 23, Peptide(SEQ ID NO: 105)-glutaric acid-Dex] (X3-GSGVPINVRCRGSRDCLDPCRRAGMRFGRCINSRCHCTP-OH; disulfide 10-30, 16-35, 20-37 (inferred); C-terminus assumed) the “ankle swelling over time as compared to vehicle” value (CIA rats) was “reduction in ankle swelling”, the spleen weight (CIA rats) was “reduction” and the thymus weight (CIA rats) was “reduction”. The total body weight (CIA rats) was “reduction”, the “change in median ankle diameter between day 11 and day 13 as compared to vehicle” value (CIA rats) was “statistically significant reduction in ankle diameter” and the “difference from Dex in change in ankle diameter” value (CIA rats) was “no statistically significant difference”. The “reduction in thymus weight as compared to vehicle” value (CIA rats) was “statistically significant”, the mortality and tolerability (CIA rats; 1 mg/kg Dex equivalents IV, some rats) was “died overnight” and the half-life at 0.25 mg/mL ([1]; PBS, release of free Dex, time points to 32 hr, read-out: Half-life (hours) as measured in the hydrolysis experiments (converted)) was 6 h. It also gave a Hydrolysis half-life [1] of 6 h, a half-life at 0.25 mg/mL [2] of 1.7 h and a half-life at 0.25 mg/mL [3, 4] of 1.9 h. The half-life at 0.25 mg/mL [3, 5] was 1.9 h.

For CC[C@H](C)[C@@H]1NC(=O)[C@@H]2CSSC[C@H](NC(=O)[C@H](CCCNC(=N)N)NC(=O)[C@@H](NC(=O)[C@H](CC(N)=O)NC(=O)[C@@H](NC(=O)[C@@H]3CCCN3C(=O)[C@@H](NC(=O)CNC(=O)[C@H](CO)NC(=O)CNC(=O)[C@H]3CC[C@H](C(=O)OCC(=O)[C@@]4(O)[C@H](C)C[C@H]5[C@@H]6CCC7=CC(=O)C=C[C@]7(C)[C@@]6(F)[C@@H](O)C[C@@]54C)CC3)C(C)C)[C@@H](C)CC)C(C)C)C(=O)N[C@@H](CCCNC(=N)N)C(=O)NCC(=O)N[C@@H](CO)C(=O)N[C@@H](CCCNC(=N)N)C(=O)N[C@@H](CC(=O)O)C(=O)N[C@H]3CSSC[C@H](NC(=O)[C@H](CCCNC(=N)N)NC(=O)[C@H](CO)NC(=O)[C@H](CC(N)=O)NC1=O)C(=O)N[C@@H](Cc1c[nH]cn1)C(=O)N[C@H](C(=O)N[C@H](C(=O)N1CCC[C@H]1C(=O)O)[C@@H](C)O)CSSC[C@H](NC(=O)[C@@H]1CCCN1C(=O)[C@H](CC(=O)O)NC(=O)[C@H](CC(C)C)NC3=O)C(=O)N[C@@H](CCCNC(=N)N)C(=O)N[C@@H](CCCNC(=N)N)C(=O)N[C@@H](C)C(=O)NCC(=O)N[C@@H](CCSC)C(=O)N[C@@H](CCCNC(=N)N)C(=O)N[C@@H](Cc1ccccc1)C(=O)NCC(=O)N[C@@H](CCCNC(=N)N)C(=O)N2 [Compound 25, Peptide(SEQ ID NO: 105)-trans-1,4-cyclohexyl-Dex] (X4-GSGVPINVRCRGSRDCLDPCRRAGMRFGRCINSRCHCTP-OH; disulfide 10-30, 16-35, 20-37 (inferred); C-terminus assumed), the “ankle swelling over time as compared to vehicle” value (CIA rats) was “reduction in ankle swelling”, the spleen weight (CIA rats) was “reduction” and the thymus weight (CIA rats) was “reduction”. The total body weight (CIA rats) was “reduction”, the “change in median ankle diameter between day 11 and day 13 as compared to vehicle” value (CIA rats) was “statistically significant reduction in ankle diameter” and the “difference from Dex in change in ankle diameter” value (CIA rats) was “no statistically significant difference”. The “reduction in thymus weight as compared to vehicle” value (CIA rats) was “statistically significant”, the “Half-life (hours) as measured in the hydrolysis experiments” value ([1]; PBS, release of free Dex, time points to 32 hr) was “undetectable ≤32” and the Hydrolysis half-life [1] was “No Dex release ≤32 h”. It also gave a half-life at 0.25 mg/mL [2] of 21.3 h, a half-life at 0.25 mg/mL [3, 4] of 3.4 h and a half-life at 0.25 mg/mL [3, 5] of 3.4 h.
